According to PMC3810412:

T1: delta opioid receptor (Homo sapiens), P41143
T1 chain: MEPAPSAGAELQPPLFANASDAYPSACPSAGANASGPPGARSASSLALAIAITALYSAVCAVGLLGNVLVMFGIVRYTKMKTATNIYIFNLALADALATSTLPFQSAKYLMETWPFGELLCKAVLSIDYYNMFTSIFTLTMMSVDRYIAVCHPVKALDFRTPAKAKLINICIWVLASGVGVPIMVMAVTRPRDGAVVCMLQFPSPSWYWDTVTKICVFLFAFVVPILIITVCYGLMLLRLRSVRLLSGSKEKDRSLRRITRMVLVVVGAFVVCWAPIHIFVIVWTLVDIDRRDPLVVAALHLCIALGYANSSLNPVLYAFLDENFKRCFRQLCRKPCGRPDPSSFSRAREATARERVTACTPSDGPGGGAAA


Biological target: T1, delta opioid receptor (Homo sapiens), …
Test: radioligand competition
Conditions: modification not given

Binder | Ki [nM]
YAGFMALW [ligand 2] | 25
YAGFMPLW [ligand 5] | 13

The next lines start with the values.

Ki [nM] | Binder
2.9 | YAGFMW [ligand 7]
0.6 | YAGFLW [ligand 8]
